For this experiment, the target named is Pcdh γB6 ectodomain, γB6_(EC1–6), wild type. As to the kind of experiment: cryo-EM structure.

One substance from article PMC6736547 can be followed below.

Take “Pcdh γB6 ectodomain, γB6_(EC1–6), wild type (domain or fragment)”: the stoichiometry N came out at 4.

One may read the stoichiometry N as the number of molecules, sites or subunits per partner or assembly.
